Reference: patent US20250290928A1, “METHOD, KIT AND DEVICE FOR DETECTING EXTRACELLULAR VESICLES” (priority 2022, published 2025)
*: point of attachment. 5FAM = O=C1OC2(c3ccc(O)cc3Oc3cc(O)ccc32)c2ccc(C(=O)*)cc21; TQ2 = quencher

Tests used:
[1] = biological target: T1, MMP14 in the MDA-MB-231-derived extracellular vesicles (Homo sapiens, UniProt P50281); assay: Evaluation of MMP14 activity of MDA-MB-231-derived extracellular vesicles with 96-well plate; type: biochemical; conditions: 37° C.; for reaction rate per 1 μg/mL of extracellular vesicles: within 1 hour
T1 construct: in terms of intact MMP14 with a molecular weight of 70 kDa
Procedure, shortened: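 MMP14 activity in extracellular vesicles was measured by adding detection solution to samples and reading fluorescence kinetically every 5 min. Conditions were 37° C. for 1 h (ex 485/em 528 nm) or 2 h (ex 325/em 392 nm), or 30° C. for 2 h (ex 545/em 588 nm). Background was subtracted to give ΔRFU.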

[2] = biological target: T1, MMP14 in the MDA-MB-231-derived extracellular vesicles; assay: Digital detection of MDA-MB-231-derived extracellular vesicles through MMP14 activity in wells (microcompartments); type: biochemical
Procedure, shortened: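 MDA-MB-231 extracellular-vesicle samples were mixed 1:1 with MMP14 detection solution. The reaction mix was sealed under fluorinated oil in 50 fL microwells (239,000-well array), giving digital single-well readout of MMP14 activity. Standard samples were prepared by serial dilution, and bulk MMP14 activity was also measured in 96-well format.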

[3] = Example 9, EV 4 μg/mL, buffer (3), Lineweaver-Burk plots
[4] = Example 18, 78.5 fL wells, EV 3.3 μg/mL, reporter 5 μM, 37° C., 3 hours, oil AE-3000 and Y25
[5] = Example 18, 78.5 fL wells, EV 3.3 μg/mL, reporter 5 μM, 37° C., 3 hours, oil Simoa
[6] = Example 19, 37° C., 3 h, EV 0.0001 a.u. (x1=10 μg/mL)
[7] = Example 19, 37° C., 3 h, EV 0.001 a.u. (x1=10 μg/mL)
[8] = Example 19, 37° C., 3 h, EV 0.01 a.u. (x1=10 μg/mL)
[9] = Example 19, 37° C., 3 h, EV 0.1 a.u. (x1=10 μg/mL)
[10] = Example 19, 37° C., 3 h, EV 1 a.u. (x1=10 μg/mL)
[11] = Example 19, 37° C., 7 h, EV 0.0001 a.u. (x1=10 μg/mL)
[12] = Example 19, 37° C., 7 h, EV 0.001 a.u. (x1=10 μg/mL)
[13] = Example 19, 37° C., 7 h, EV 0.01 a.u. (x1=10 μg/mL)
[14] = Example 19, 37° C., 7 h, EV 0.1 a.u. (x1=10 μg/mL)
[15] = Example 19, 37° C., 7 h, EV 1 a.u. (x1=10 μg/mL)
[16] = Example 22, buffer (2), 37° C., 1 h, EV 0 (free of extracellular vesicles)
[17] = Example 22, buffer (2), 37° C., 1 h, EV 0.111 a.u.
[18] = Example 22, buffer (2), 37° C., 1 h, EV 0.333 a.u.
[19] = Example 22, buffer (2), 37° C., 1 h, EV 1 a.u. (x1=10 μg/mL)
[20] = Example 22, buffer (2), 37° C., 2 h, EV 0 (free of extracellular vesicles)
[21] = Example 22, buffer (2), 37° C., 2 h, EV 0.111 a.u.
[22] = Example 22, buffer (2), 37° C., 2 h, EV 0.333 a.u.
[23] = Example 22, buffer (2), 37° C., 2 h, EV 1 a.u. (x1=10 μg/mL)

[5-FAM]GGPLGLAGGK(TQ2)[OH] (5FAM-GGPLGLAGGK(TQ2)-OH) [Custom #2]
increase in fluorescence intensity (temporal change) ([1]; Example 4, EV 5 μg/mL, reporter 5 μM, Assay buffer (Component D)): more significant than that from SensoLyte 520 MMP-14 | reaction rate per 1 μg/mL of extracellular vesicles ([1]; Example 5, Assay buffer (Component D) of SensoLyte 520 MMP-14 Assay Kit, reporter 5 μM): 83.3 ΔRFU/min | reaction rate per 1 μg/mL of extracellular vesicles ([1]; Example 8, buffer (2), reporter 5 μM): 99.0 ΔRFU/min | Km [1, 3]: 0.511 µM | Vmax [1, 3]: 582.411 ΔRFU/min | extracellular vesicle concentration at which MMP14 activity was able to be detected with a 96-well plate ([1]; buffer (4), reporter 5 μM): ≥ 1 µg/mL | Expected value λ [2, 4]: 0.235 | Number of positives [2, 4]: 3,094 | Positive ratio [2, 4]: 0.21 | Expected value λ [2, 5]: 0.188 | Number of positives [2, 5]: 2,529 | Positive ratio [2, 5]: 0.171 | Extracellular vesicle concentration ([2]; Example 18, oil AE-3000 and Y25): 9.1×10^8 /μg of protein | Extracellular vesicle concentration ([2]; Example 18, oil AE-3000 and Y25, reaction solution 3.3 μg of protein/mL): 3e+09 mL⁻¹ | Extracellular vesicle concentration ([2]; Example 18, oil Simoa): 7.3×10^8 /μg of protein | Extracellular vesicle concentration ([2]; Example 18, oil Simoa, reaction solution 3.3 μg of protein/mL): 2.4e+09 mL⁻¹ | Expected value λ [2, 6]: 0.000138 | Number of positives [2, 6]: 4 | Positive ratio [2, 6]: 0.000138 | Expected value λ [2, 7]: 0.0011 | Number of positives [2, 7]: 32 | Positive ratio [2, 7]: 0.0011 | Expected value λ [2, 8]: 0.00915 | Number of positives [2, 8]: 264 | Positive ratio [2, 8]: 0.00911 | Expected value λ [2, 9]: 0.0827 | Number of positives [2, 9]: 2,305 | Positive ratio [2, 9]: 0.0794 | Expected value λ [2, 10]: 0.717 | Number of positives [2, 10]: 14,539 | Positive ratio [2, 10]: 0.512 | Expected value λ [2, 11]: 0.000104 | Number of positives [2, 11]: 3 | Positive ratio [2, 11]: 0.000104 | Expected value λ [2, 12]: 0.000828 | Number of positives [2, 12]: 24 | Positive ratio [2, 12]: 0.000828 | Expected value λ [2, 13]: 0.0092 | Number of positives [2, 13]: 263 | Positive ratio [2, 13]: 0.00916 | Expected value λ [2, 14]: 0.0929 | Number of positives [2, 14]: 2,571 | Positive ratio [2, 14]: 0.0887 | Expected value λ [2, 15]: 2.33 | Number of positives [2, 15]: 26,093 | Positive ratio [2, 15]: 0.902 | Extracellular vesicle concentration ([2]; Example 19, 3 hours): 1.3×10^9 /μg of protein | Extracellular vesicle concentration ([2]; Example 19, 3 hours, reaction solution 10 μg of protein/mL, 50 fL): 1.3e+10 mL⁻¹ | extracellular vesicles in which MMP14 activity can be detected, contained in 1 μL of the extracellular vesicles (50 μg of protein in 50 μL of PBS) ([2]; Example 19, 7 hours): 1.8×10^9 | Extracellular vesicle concentration ([2]; Example 19, 7 hours, reaction solution 10 μg of protein/mL, 50 fL): 1.8e+10 mL⁻¹ | λ at x1 from the approximation ([2]; Example 19, reaction time of 3 hours): 0.6727 | λ at x1 from the approximation ([2]; Example 19, reaction time of 7 hours): 0.8756 | expected value λ at x1 (power approximation) ([2]; Example 22, after 1 hour): 0.5098 | expected value λ at x1 (power approximation) ([2]; Example 22, after 2 hours): 0.7649 | Expected value λ [2, 16]: 0 | Number of positives [2, 16]: 0 | Positive ratio [2, 16]: 0 | Expected value λ [2, 17]: 0.0648 | Number of positives [2, 17]: 1,819 | Positive ratio [2, 17]: 0.0627 | Expected value λ [2, 18]: 0.193 | Number of positives [2, 18]: 5,094 | Positive ratio [2, 18]: 0.176 | Expected value λ [2, 19]: 0.497 | Number of positives [2, 19]: 11,360 | Positive ratio [2, 19]: 0.392 | Expected value λ [2, 20]: 0 | Number of positives [2, 20]: 0 | Positive ratio [2, 20]: 0 | Expected value λ [2, 21]: 0.0988 | Number of positives [2, 21]: 2,727 | Positive ratio [2, 21]: 0.0941 | Expected value λ [2, 22]: 0.267 | Number of positives [2, 22]: 6,788 | Positive ratio [2, 22]: 0.234 | Expected value λ [2, 23]: 0.774 | Number of positives [2, 23]: 15,608 | Positive ratio [2, 23]: 0.539 | extracellular vesicle concentration at which MMP14 activity was able to be detected in the microcompartments ([2]; Simoa Discs, buffer (4), reporter 5 μM, 37° C.): ≥ 1 ng/mL
